According to PMC8477557:

Target: CD123 extracellular domain (human (cDNA of L-428 cells)) (UniProt P26951)
Assay: SPR
Conditions: bispecific antibody

CD123 extracellular domain (human (cDNA of L-428 cells)), sequence (P26951 19-305): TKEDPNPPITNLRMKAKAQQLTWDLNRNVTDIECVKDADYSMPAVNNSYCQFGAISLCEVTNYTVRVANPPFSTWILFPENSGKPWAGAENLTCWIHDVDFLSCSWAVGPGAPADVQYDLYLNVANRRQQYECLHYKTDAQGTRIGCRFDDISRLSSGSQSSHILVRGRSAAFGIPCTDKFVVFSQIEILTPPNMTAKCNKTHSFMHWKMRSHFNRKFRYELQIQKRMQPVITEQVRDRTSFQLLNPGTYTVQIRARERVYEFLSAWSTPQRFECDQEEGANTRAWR

Kd	Substance
2.74 nM	1 × SIRPα-αCD123 fusion antibody (from UniProt P78324 31-149)
2.34 nM	2 × SIRPα-αCD123 fusion antibody (from UniProt P78324 31-149; P78324 31-149)
